Assay results as given in the Human Domainome abundance scans (Beltran et al. 2025).

B1: RNA-binding E3 ubiquitin-protein ligase MEX3C, residues 325 to 391; numbered along this chain, Q5U5Q3 (parent)
chain: GQTTVQVRVPYRVVGLVVGPKGATIKRIQQQTHTYIVTPSRDKEPVFEVTGMPENVDRAREEIEMHI

Variants of: B1
Assay: abundance fitness (aPCA) (normalised: wild type 0, dead -1); higher = more abundant; growth selection in yeast, the domain comes from the species named
Details: Homo sapiens

Abundance fitness: each site, then its substitutions
T34: I -0.866; A -0.877; M -0.788; K -0.34; Q -1.01; C -0.423; P -0.867; F -0.969; W -0.947; G -0.828; R -0.641; L -0.689; S -0.802; Y -1.07; N -0.791; D -0.503
I28: P -0.376; E -0.952; L -0.559; V -0.496; C -0.874; M -0.639; T -0.288; Q -0.576; R -0.419; F -0.467; A -0.695; H -0.751; W -1.2; G -0.883
V37: R 0.138; L -0.315; A -0.23; Y -0.629; N -0.426; D -0.377; I -0.089; T 0.136; Q -0.094; K 0.216; P -0.724; C -0.205; E -0.422; M -0.095; H -0.582; F -1; W -0.811; S -0.027
V18: T -0.26; R -0.508; S -0.523; K -0.541; W -0.639; Q -0.63; P -0.771; N -0.305; M -0.119; Y -0.256
Q31: V -0.109; S -0.319; W -0.966; I -0.18; A -0.272; E 0.252; M 0.048; D -0.001; T -0.261; K 0.035; R 0.036; C -0.69; G -0.57; P -0.65; N -0.048; F -0.452; L -0.128
T24: A -0.53; L -0.875; C -0.574; P -1.02; S -0.731; Q -0.818; H -0.28; D -0.67; W -0.553; K -0.346; G -0.371; R -0.366; I -0.792; V -0.517; Y -0.589; E -0.304; N 0.171; M -0.786
Q30: T -0.183; H -0.23; W -0.566; A -0.01; K -0.016; F -0.773; E -0.022; C -0.805; Y -0.664; D -0.053; G -0.609; S -0.435; M -0.377; V -0.536; R -0.126; P -0.899; L -0.505
P39: A -0.497
A23: G -0.443; R 0.063; S -0.08; Q 0.003; C -0.352; L -0.293; I -0.332; W -0.553; D -0.55; H -0.258; N -0.568; F -0.868; T -0.012; M -0.027; E -0.082; V -0.477
Q29: D -0.34; T -0.619; S -0.179; V -0.746; I -0.736; M 0.205; K -0.81; G -0.308; C -0.392; A 0.106; E -0.241; R -0.549; P -0.765; F -0.882; W -0.629
K21: S -0.233; A -0.186; C -0.247; G -0.04; T -0.596; H -0.273; N -0.113; P -0.884; D -0.19; M -0.031; E -0.099; R -0.196; L -0.183; I -0.53; W -0.458
Y35: M -0.044; I -0.069; C -0.132; L -0.046; H 0.164; K 0.284; V 0.129; S 0.15; G -0.511; R 0.2; W -0.135; E -0.041; P -0.773; N 0.1; F -0.02; T 0.307; Q 0.206; A -0.044; D -0.283
T38: A -0.015; V -0.174; R -0.403; D -0.275; C 0.005; W -0.384; I -0.177; S -0.01; G 0.005; K -0.333; F -0.516; H -0.587; N -0.347; L -0.268; Y 0.017; P -0.046; M -0.271
G22: E -0.389; P -0.836; S -0.522; D -0.543; W -0.687; N -0.631; L -0.587; A -0.489; H -0.769; R -0.504; F -0.738; K -0.424; T -0.68; C -0.712; Q -0.189; M -0.274
I36: W -0.736; F -0.941; P -0.736; E -1.04; S -0.435; T -0.899; V -0.471; A -0.555; N -0.21; Q -0.801; R -0.715; G -0.586; M -0.885; K -0.729
T32: A -0.712; I -0.944; R -0.938; P -0.654; L -0.734; V -0.682; D -0.575; H -0.488; E -0.707; Q -0.669; C -0.578; W -0.916; M -0.653; Y -0.777
I25: K -0.754; H -0.62; T -0.75; C -0.58; A -0.811; R -0.39; F -0.905; L -0.165; E -0.786; M -0.571; P -0.64; G -0.68; Y -0.502
H33: W -1.15; R -0.165; Q 0.088; M -0.213; L -0.582; T -0.744; G 0.081; E -0.267; C -0.426; D 0.184; N 0.171; K 0.016; A -0.182; P -0.845; F -0.438; Y -0.396
K26: M -0.212; P -0.56; H -0.66; S -0.483; F -0.786; A -0.119; W -0.722; Y -0.944; G -0.769; Q -0.343; T -0.61; V -0.747; L -0.655; C -0.911; R -0.126; N -0.491; D -0.417
G19: Q -0.623; K -0.785; M -1.03; I -1.08; N -0.64; C -0.844; L -0.951; D -0.716; E -0.897; F -0.863; T -0.822; V -0.795; P -0.824; Y -0.159; R -0.739; H -0.694; W -0.848; A -0.86
P20: R -0.039; M -0.763; A -0.381; L -0.59; E -0.139; C -0.444; T -0.472; Y -0.266; S -0.408; G -0.717; V -0.449; K -0.026; W -0.625; I 0.051; H -0.123; Q -0.15
R27: F -0.755; L -0.665; W -0.241; K 0.111; M -0.346; D -0.656; V -0.577; G -0.591; C -0.832; Q -0.399; A -0.37; P -0.834; T -0.38; N -0.59; S -0.465; I -0.901; E -0.512
